Data taken from patent publication US20240240191, “RNA APTAMERS SPECIFIC FOR A-SYNUCLEIN PROTEIN FIBER CONFORMERS” (COMMISSARIAT A L'ENERGIE ATOMIQUE ET AUX ENERGIES …, published 2024).

Assays:
[1] = target: T1, alpha-synuclein fibril, F-type conformer (fibrils) (UniProt P37840 P37840:1-140); test: FP filter; nitrocellulose filter; retained much more than random sequence
[2] = target: T1, alpha-synuclein fibril, F-type …; test: FP filter; nitrocellulose filter; 10 nM aptamer, 1 uM fibers, Ts1X, 37 C
[3] = target: alpha-synuclein fibril, R-type conformer (ribbons) (UniProt P37840 P37840:1-140); test: FP filter; nitrocellulose filter; not above random sequence
[4] = target: T1, alpha-synuclein fibril, F-type …; test: as above
[5] = target: amyloid-beta 40 fibril (UniProt P05067 P05067:672-711); test: FP filter; nitrocellulose filter; conditions: tags: Abeta40 fibers, chain copies: fibril (stated)
Description: (§1) The affinity of candidate aptamers as well as that of aptamers from the literature was also measured against different “amyloid” type fibers (Tau1N3R fibers and Aβ40 fibers), in addition to the conformers of F and R α-syn fiber. The affinity of the candidate aptamers against the α-Syn fiber “P110” was also measured. This fiber was made from α-Syn protein truncated from amino acid n° 110 (thus missing the 30 amino acids of the C-terminal domain). The oligonucleotides (aptamers) at 10 nM (hybridized by heat shock to SpG-LNA radioactively marked with P32 for RNA2′F chemistry oligonucleotides, or directly marked with P32 for DNA oligonucleotides) were presented to proteins at 250 nM in a solution of Ts1X containing Igepal at 0.1% and ssDNA added in a 5-1 proportion relative to the oligonucleotides (that is to say between 0.135 μg/ml and 17.325 μg/ml). After 30 min of incubation at 37° C., 25 μL of each mixture is deposited on the nitrocellulose membrane, then filtered. Two washes with Ts1X are then carried out. The amounts of oligonucleotides retained on the nitrocellulose membrane are quantified by exposing the membrane to a photostimulable phosphorus screen. The Kd and Bₘₐₓ were calculated by means of the Prism software using a non-linear regression model analyzing the (specific and non-specific) total affinity of a candidate for the target, assuming that there is only one binding site on the target for the candidate. The measurements were carried out in triplicate (three independent experiments on different days) for the F and R type α-Syn fibers, and in duplicate for the other fibers (Tau1N3R and the fibers Aβ40, and P110) as well as for α-Syn monomers.

[6] = target: alpha-synuclein fibril P110 (C-terminally truncated) (UniProt P37840 P37840:1-110); test: FP filter; nitrocellulose filter; conditions: tags: fibril lacking the 30 C-terminal residues, chain copies: fibril (stated)
Description: as §1

[7] = target: T1, alpha-synuclein fibril, F-type …; test: FP filter; nitrocellulose filter; Ts1X (10 mM HEPES pH 7.6, 150 mM NaCl, 5 mM KCl, 1.5 mM CaCl2, 1 mM MgCl2), 0.1% Igepal, ssDNA competitor, 37 C; Bmax 52.48 fmol; 3/3

Chain of amyloid-beta 40 fibril (P05067 672-711, one chain of several): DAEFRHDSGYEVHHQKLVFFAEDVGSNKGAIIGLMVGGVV

B1: 4F02-G (ssRNA)
RNA: GGGAGAGUAUCCGUUGGAGGCAUGCUGGCAGCACGCACCGCUGACCGCUGGCUGCACUAUGCGUGUGGAGUGCAGAUCGGAAGAGCGUCGUGUAGGGCAUUGCCCCAGCGUGACUGCCUA
modifications: 2'-F on all pyrimidines
B1: binds [1].

B2: N3-G (ssRNA)
RNA: GGGAGAGUAUCCGUUGAGGCUGACAACGCGUUUACCUCACACCACGUCAUCCGUUGCCAGAUCGGAAGAGCGUCGUGUAGGGCAUUGCCCCAGCGUGACUGCCUA
modifications: 2'-F on all pyrimidines
B2 gave a binding signal [2] of 3.5 fold over Scr2-G.

B3: 4F05-G (ssRNA)
RNA: GGGAGAGUAUCCGUUGGAGGCAUGCCGCAGGCUACACCACAGCUUCCCCUUCAGCGUGUUGUGGAUACUCGGCAGAUCGGAAGAGCGUCGUGUAGGGCAUUGCCCCAGCGUGACUGCCUA
modifications: 2'-F on all pyrimidines
B3: binds [1].

B4: P65-G (P65_10854) (ssRNA)
RNA: GGGAGAGUAUCCGUUGGAGGCAUCGCACAGUGUACACCUACACACAGCAUACCUGUUGGCAUCCCAGGUUGCCAGAUCGGAAGAGCGUCGUGUAGGGCAUUGCCCCAGCGUGACUGCCUA
modifications: 2'-F on all pyrimidines
B4: binds [1].

B5: Tau 3146 (ssDNA)
DNA: GCCTGTTGTGAGCCTCCTGTCGAACCTTTGGGGTGGCTTGACGAAGAAAGTAGTTGAGCGTTTATTCTTGTCTCCC
B5: no binding [3]; no binding [4].

B6: N30-G (ssRNA)
RNA: GGGAGAGUAUCCGUUGAGGCUGAUCGAUCCACGUCCGACAACGCGUUUACUCGCCAUCAGAUCGGAAGAGCGUCGUGUAGGGCAUUGCCCCAGCGUGACUGCCUA
modifications: 2'-F on all pyrimidines
In the case of B6, the binding result [5] is reported as “no binding”, the binding result [6] is reported as “no binding” and the Kd [7] is reported as 6.62 nM.

B7: 4F03-G (ssRNA)
RNA: GGGAGAGUAUCCGUUGGAGGCAUGCAACAGACGCACCGUACACACAUCUUGGCCGUUGGCUGCCCGACCAGCCAGAUCGGAAGAGCGUCGUGUAGGGCAUUGCCCCAGCGUGACUGCCUA
modifications: 2'-F on all pyrimidines
B7: binds [1].

B8: F5R2 (ssDNA)
DNA: ATCGAGTGGACGAGTGCCTCCGGTACGAGCTGTCTGATGGGTTTGCGCGCAGGATCCA
B8: no binding ([5]; label: 32P); no binding ([6]; label: 32P).

B9: N124-G (ssRNA)
RNA: GGGAGAGUAUCCGUUGAGGCUGAUCCGACCAUGCUUCAACUUAUACCUCGGGGACUGUAGAUCGGAAGAGCGUCGUGUAGGGCAUUGCCCCAGCGUGACUGCCUA
modifications: 2'-F on all pyrimidines
B9: no binding [6].

B10: F124-G (PF_124) (ssRNA)
RNA: GGGAGAGUAUCCGUUGGAGGCAUCACGGACACCUACCCGACGGCAUGUCAGGACACAUGUUGUGCUCCGUGUGAGAUCGGAAGAGCGUCGUGUAGGGCAUUGCCCCAGCGUGACUGCCUA
modifications: 2'-F on all pyrimidines
B10: binds [1].

B11: 4F01-G (ssRNA)
RNA: GGGAGAGUAUCCGUUGGAGGCAUAGCAGCACACGACCAGUGUGCCCCACACCCAGUGGUGGUCUGUGGUGUGCAGAUCGGAAGAGCGUCGUGUAGGGCAUUGCCCCAGCGUGACUGCCUA
modifications: 2'-F on all pyrimidines
B11: binds [1].
